Assay results as given in US5981483.
Values joined by “and” are separate entries in the source; they are usually repeats but may differ in a detail not shown here. Equal values may be shown once.

Legend:
[1] = target: purified human TGF-β1 (human) (UniProt P01137)
[2] = target: purified human TGF-β1 (human) (UniProt P01137); remark: listed apart in the source
[3] = target: active TGF-β produced by Mv1Lu cells (mink)
[4] = target: purified human TGF-β1 (human) (UniProt P01137); remark: listed apart in the source
[5] = target: T1, recombinant human BMP-2 (human) (UniProt P12643)
T1 sequence: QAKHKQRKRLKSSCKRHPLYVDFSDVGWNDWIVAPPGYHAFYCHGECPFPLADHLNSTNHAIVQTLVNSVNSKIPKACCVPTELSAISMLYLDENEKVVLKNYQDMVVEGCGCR

[6] = target: TGF-β in dexamethasone-treated rat bone marrow cultures (rat)
BMP-4 [7] = experiment: SPR (BIAcore); analyte over immobilized cytokine
BMP-6 [8] = experiment: SPR (BIAcore); analyte over immobilized cytokine
Sequence of BMP-6 (P22004 375-513): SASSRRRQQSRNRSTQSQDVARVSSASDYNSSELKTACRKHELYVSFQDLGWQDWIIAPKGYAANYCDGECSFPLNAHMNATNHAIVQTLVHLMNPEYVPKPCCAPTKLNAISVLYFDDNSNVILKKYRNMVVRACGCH

TGF-β2 [9] = experiment: SPR (BIAcore); analyte over immobilized cytokine
BMP-4 [10] = experiment: SPR (BIAcore); analyte over immobilized cytokine; repeated calculation
BMP-6 [11] = experiment: as above
TGF-β2 [12] = experiment: as above

Sequence of purified human TGF-β1 (human) (P01137 279-390 limits assumed): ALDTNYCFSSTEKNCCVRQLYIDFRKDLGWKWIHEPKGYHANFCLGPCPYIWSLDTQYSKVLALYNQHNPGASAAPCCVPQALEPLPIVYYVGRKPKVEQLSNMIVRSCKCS

percent neutralization of the antiproliferative activity of TGF-β1 (3H-thymidine incorporation, Mv1Lu cells) [1]: 150%
IC50, inhibition of the anti-proliferative activity of TGF-β1 (12 pM) on Mv1Lu cells [2]: 4.2e-06 M
proliferation of Mv1Lu cells without added cytokine (3H-thymidine incorporation) [3]: 8 pM
IC50, block of the anti-proliferative activity of exogenously added TGF-β1 (18 pM) on Mv1Lu cells (FIG. 12) [4]: 3e-06 M
IC50, reversal of BMP-2 inhibition of Mv1Lu cell growth [5]: 2 µM and 5 µM
IC50, inhibition of calcium-deposition [6]: 10 µM
Kd (BMP-4 [7]): 0.14 µM
koff (BMP-4 [7]): 0.00058 s⁻¹
kon (BMP-4 [7]): 4200 M⁻¹ s⁻¹
Kd (BMP-6 [8]): 0.86 µM
koff (BMP-6 [8]): 0.0025 s⁻¹
kon (BMP-6 [8]): 2900 M⁻¹ s⁻¹
koff (TGF-β2 [9]): 0.0032 s⁻¹
kon (TGF-β2 [9]): 550 M⁻¹ s⁻¹
Kd (BMP-4 [10]): 0.12 µM
koff (BMP-4 [10]): 0.00051 s⁻¹
kon (BMP-4 [10]): 4200 M⁻¹ s⁻¹
Kd (BMP-6 [11]): 0.71 µM
koff (BMP-6 [11]): 0.0021 s⁻¹
kon (BMP-6 [11]): 2900 M⁻¹ s⁻¹
Kd (TGF-β2 [12]): 4.4 µM
koff (TGF-β2 [12]): 0.0024 s⁻¹
kon (TGF-β2 [12]): 550 M⁻¹ s⁻¹
B1: bovine fetuin (protein)
chain: IPLDPVAGYKEPACDDPDTEQAALAAVDYINKHLPRGYKHTLNQIDSVKVWPRRPTGEVYDIEIDTLETTCHVLDPTPLANCSVRQQTQHAVEGDCDIHVLKQDGQFSVLFTKCDSSPDSAEDVRKLCPDCPLLAPLNDSRVVHAVEVALATFNAESNGSYLQLVEISRAQFVPLPVSVSVEFAVAATDCIAKEVVDPTKCNLLAEKQYGFCKGSVIQKALGGEDVRVTCTLFQTQPVIPQPQPDGAEAEAPSAVPDAAGPTPSAAGPPVASVVVGPSVVAVPLPLHRAHYDLRHTFSGVASVESSSGEAFHVGKTPIVGQPSIPGGPVRLCPGRIRYFKI
